Test results reported in PMC5740061 (Nature Communications, 2017).

B1: SDGF-TB1G1 (TB1G1 displayed on 293F cells) [designed binder] / Biotinylated His-Avi-TEAD1(194–411) [modified: biotin (BirA-500 kit); biotin (BirA-500 kit)] [not stated] (parent complex)
chain 1: PDEYIERAKECCKKGDIQCCLRYFEESGDPNVMLICLFCP
chain 2: RSIGTTKLRLVEFSAFLEQQRDPDSYNKHLFVHIGHANHSYSDPLLESVDIRQIYDKFPEKKGGLKELFGKGPQNAFFLVKFWADLNCNIQDDAGAFYGVTSQYESSENMTVTCSTKVCSFGKQVVEKVETEYARFENGRFVYRINRSPMCEYMINFIHKLKHLPEKYMMNSVLENFTILLVVTNRDTQETLLCMACVFEVSNSEHGAQHHIYRLVKD

Variants of: B1
Assay: mammalian (293F) surface display of a site-saturation mutagenesis library (every non-Cys single substitution), FACS sorting on biotinylated TEAD1 YBD, two sorting rounds, Illumina sequencing with perfect-match mapping; 20 nM biotinylated TEAD, monovalent 2-step stain (TEAD alone 30 min at 4 °C, dilute, pellet, then 20 nM streptavidin-Alexa Fluor 647), flow sorting on a BD Aria

Compared with chain 1 PDEMIERAKECCKKGDIQCCLRYFEESGDPNVMLICLFCP [chain 1 Y4M], chain 1 PDEEIERAKECCKKGDIQCCLRYFEESGDPNVMLICLFCP [chain 1 Y4E] is lower in enrichment: -0.684 log2 (fold change of variant abundance after two TEAD sorts vs input, normalised to TB1G1) for the first, -6.52 log2 (fold change of variant abundance after two TEAD sorts vs input, normalised to TB1G1) for the second.

First: chain 1 PDEHIERAKECCKKGDIQCCLRYFEESGDPNVMLICLFCP [chain 1 Y4H]
Second: chain 1 PDESIERAKECCKKGDIQCCLRYFEESGDPNVMLICLFCP [chain 1 Y4S]
The enrichment of the first is lower: -1.9 log2 (fold change of variant abundance after two TEAD sorts vs input, normalised to TB1G1) for the first, -0.738 log2 (fold change of variant abundance after two TEAD sorts vs input, normalised to TB1G1) for the second.

Compared with chain 1 PDEIIERAKECCKKGDIQCCLRYFEESGDPNVMLICLFCP [chain 1 Y4I], chain 1 PDEFIERAKECCKKGDIQCCLRYFEESGDPNVMLICLFCP [chain 1 Y4F] is higher in enrichment: -0.405 log2 (fold change of variant abundance after two TEAD sorts vs input, normalised to TB1G1) for the first, 0.668 log2 (fold change of variant abundance after two TEAD sorts vs input, normalised to TB1G1) for the second.

First: chain 1 PDETIERAKECCKKGDIQCCLRYFEESGDPNVMLICLFCP [chain 1 Y4T]
Second: chain 1 PDENIERAKECCKKGDIQCCLRYFEESGDPNVMLICLFCP [chain 1 Y4N]
The enrichment of the first is lower: -0.869 log2 (fold change of variant abundance after two TEAD sorts vs input, normalised to TB1G1) for the first, 0.0419 log2 (fold change of variant abundance after two TEAD sorts vs input, normalised to TB1G1) for the second.

First: chain 1 PDEAIERAKECCKKGDIQCCLRYFEESGDPNVMLICLFCP [chain 1 Y4A]
Second: chain 1 PLEYIERAKECCKKGDIQCCLRYFEESGDPNVMLICLFCP [chain 1 D2L]
The enrichment of the first is higher: 0.259 log2 (fold change of variant abundance after two TEAD sorts vs input, normalised to TB1G1) for the first, -3.53 log2 (fold change of variant abundance after two TEAD sorts vs input, normalised to TB1G1) for the second.

First: chain 1 PREYIERAKECCKKGDIQCCLRYFEESGDPNVMLICLFCP [chain 1 D2R]
Second: chain 1 PPEYIERAKECCKKGDIQCCLRYFEESGDPNVMLICLFCP [chain 1 D2P]
The enrichment of the first is lower: -7.12 log2 (fold change of variant abundance after two TEAD sorts vs input, normalised to TB1G1) for the first, -2.11 log2 (fold change of variant abundance after two TEAD sorts vs input, normalised to TB1G1) for the second.

First: chain 1 PVEYIERAKECCKKGDIQCCLRYFEESGDPNVMLICLFCP [chain 1 D2V]
Second: chain 1 PQEYIERAKECCKKGDIQCCLRYFEESGDPNVMLICLFCP [chain 1 D2Q]
The enrichment of the first is lower: -2.34 log2 (fold change of variant abundance after two TEAD sorts vs input, normalised to TB1G1) for the first, -0.201 log2 (fold change of variant abundance after two TEAD sorts vs input, normalised to TB1G1) for the second.

Compared with chain 1 PEEYIERAKECCKKGDIQCCLRYFEESGDPNVMLICLFCP [chain 1 D2E], chain 1 PSEYIERAKECCKKGDIQCCLRYFEESGDPNVMLICLFCP [chain 1 D2S] is lower in enrichment: 1.16 log2 (fold change of variant abundance after two TEAD sorts vs input, normalised to TB1G1) for the first, -1.01 log2 (fold change of variant abundance after two TEAD sorts vs input, normalised to TB1G1) for the second.

Compared with chain 1 PYEYIERAKECCKKGDIQCCLRYFEESGDPNVMLICLFCP [chain 1 D2Y], chain 1 PDEYIEYAKECCKKGDIQCCLRYFEESGDPNVMLICLFCP [chain 1 R7Y] is higher in enrichment: -1.63 log2 (fold change of variant abundance after two TEAD sorts vs input, normalised to TB1G1) for the first, -1.01 log2 (fold change of variant abundance after two TEAD sorts vs input, normalised to TB1G1) for the second.

Compared with chain 1 PDEYIEPAKECCKKGDIQCCLRYFEESGDPNVMLICLFCP [chain 1 R7P], chain 1 PDEYIEVAKECCKKGDIQCCLRYFEESGDPNVMLICLFCP [chain 1 R7V] is higher in enrichment: -2.49 log2 (fold change of variant abundance after two TEAD sorts vs input, normalised to TB1G1) for the first, -2.31 log2 (fold change of variant abundance after two TEAD sorts vs input, normalised to TB1G1) for the second.

First: chain 1 PDEYIESAKECCKKGDIQCCLRYFEESGDPNVMLICLFCP [chain 1 R7S]
Second: chain 1 PDEYIEFAKECCKKGDIQCCLRYFEESGDPNVMLICLFCP [chain 1 R7F]
The enrichment of the first is higher: 0.311 log2 (fold change of variant abundance after two TEAD sorts vs input, normalised to TB1G1) for the first, -1.04 log2 (fold change of variant abundance after two TEAD sorts vs input, normalised to TB1G1) for the second.

First: chain 1 PDEYIENAKECCKKGDIQCCLRYFEESGDPNVMLICLFCP [chain 1 R7N]
Second: chain 1 PDEYIEHAKECCKKGDIQCCLRYFEESGDPNVMLICLFCP [chain 1 R7H]
The enrichment of the first is higher: 0.343 log2 (fold change of variant abundance after two TEAD sorts vs input, normalised to TB1G1) for the first, -0.322 log2 (fold change of variant abundance after two TEAD sorts vs input, normalised to TB1G1) for the second.

First: chain 1 PDEYIEGAKECCKKGDIQCCLRYFEESGDPNVMLICLFCP [chain 1 R7G]
Second: chain 1 PDEYIEDAKECCKKGDIQCCLRYFEESGDPNVMLICLFCP [chain 1 R7D]
The enrichment of the first is higher: 1.31 log2 (fold change of variant abundance after two TEAD sorts vs input, normalised to TB1G1) for the first, -2.25 log2 (fold change of variant abundance after two TEAD sorts vs input, normalised to TB1G1) for the second.

Compared with chain 1 PDEYIEKAKECCKKGDIQCCLRYFEESGDPNVMLICLFCP [chain 1 R7K], chain 1 PDEYIEQAKECCKKGDIQCCLRYFEESGDPNVMLICLFCP [chain 1 R7Q] is lower in enrichment: 0.473 log2 (fold change of variant abundance after two TEAD sorts vs input, normalised to TB1G1) for the first, -0.484 log2 (fold change of variant abundance after two TEAD sorts vs input, normalised to TB1G1) for the second.

Compared with chain 1 PDHYIERAKECCKKGDIQCCLRYFEESGDPNVMLICLFCP [chain 1 E3H], chain 1 PDAYIERAKECCKKGDIQCCLRYFEESGDPNVMLICLFCP [chain 1 E3A] is lower in enrichment: -0.307 log2 (fold change of variant abundance after two TEAD sorts vs input, normalised to TB1G1) for the first, -2.02 log2 (fold change of variant abundance after two TEAD sorts vs input, normalised to TB1G1) for the second.

Compared with chain 1 PDVYIERAKECCKKGDIQCCLRYFEESGDPNVMLICLFCP [chain 1 E3V], chain 1 PDGYIERAKECCKKGDIQCCLRYFEESGDPNVMLICLFCP [chain 1 E3G] is higher in enrichment: -1.39 log2 (fold change of variant abundance after two TEAD sorts vs input, normalised to TB1G1) for the first, -0.623 log2 (fold change of variant abundance after two TEAD sorts vs input, normalised to TB1G1) for the second.

First: chain 1 PDRYIERAKECCKKGDIQCCLRYFEESGDPNVMLICLFCP [chain 1 E3R]
Second: chain 1 PDDYIERAKECCKKGDIQCCLRYFEESGDPNVMLICLFCP [chain 1 E3D]
The enrichment of the first is lower: -1.81 log2 (fold change of variant abundance after two TEAD sorts vs input, normalised to TB1G1) for the first, 0.801 log2 (fold change of variant abundance after two TEAD sorts vs input, normalised to TB1G1) for the second.

First: chain 1 PDEYIERAFECCKKGDIQCCLRYFEESGDPNVMLICLFCP [chain 1 K9F]
Second: chain 1 PDEYIERAEECCKKGDIQCCLRYFEESGDPNVMLICLFCP [chain 1 K9E]
The enrichment of the first is lower: -3.52 log2 (fold change of variant abundance after two TEAD sorts vs input, normalised to TB1G1) for the first, 3.95 log2 (fold change of variant abundance after two TEAD sorts vs input, normalised to TB1G1) for the second.

Compared with chain 1 PDEYIERASECCKKGDIQCCLRYFEESGDPNVMLICLFCP [chain 1 K9S], chain 1 PDEYIERATECCKKGDIQCCLRYFEESGDPNVMLICLFCP [chain 1 K9T] is higher in enrichment: -0.907 log2 (fold change of variant abundance after two TEAD sorts vs input, normalised to TB1G1) for the first, 2.68 log2 (fold change of variant abundance after two TEAD sorts vs input, normalised to TB1G1) for the second.

Variants of: B1
Assay: not given

chain 1 PDEYIERAKESSKKGDIQSSLRYFEESGDPNVMLISLFSP [chain 1 C11S, chain 1 C12S, chain 1 C19S, chain 1 C20S, chain 1 C36S, chain 1 C39S] was tested, and the ratio to parent was about 0.01.
